Source: US20090166224A1 (published 2009)

How the values were obtained:
Test in all cases: human serum on Con A/WGA/Jacalin column, lectin-specific displacer fraction, LC-MS/MS; grade = SEQUEST rank group (+ = ranks 1-5, ++++ = 16-20)
[1] = biological target: T1, HAPTOGLOBIN-RELATED PROTEIN (human, UniProt P00739 1-348, limits assumed)
T1 construct: from human serum; also called HPTR
T1 sequence (looked up): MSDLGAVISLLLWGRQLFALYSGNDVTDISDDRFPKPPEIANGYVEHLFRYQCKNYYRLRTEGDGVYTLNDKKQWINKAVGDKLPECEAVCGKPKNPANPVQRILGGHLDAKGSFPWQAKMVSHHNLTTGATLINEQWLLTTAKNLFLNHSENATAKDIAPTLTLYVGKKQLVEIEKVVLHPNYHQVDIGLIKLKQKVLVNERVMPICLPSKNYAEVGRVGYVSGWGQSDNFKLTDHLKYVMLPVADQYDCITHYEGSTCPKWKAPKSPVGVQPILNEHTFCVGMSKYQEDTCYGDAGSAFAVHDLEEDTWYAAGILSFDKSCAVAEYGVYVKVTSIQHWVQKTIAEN

APOLIPOPROTEIN E = biological target: T2, APOLIPOPROTEIN E (human, UniProt P02649 19-317)
T2 construct: from human serum; also called APE

[2] = biological target: T3, IG GAMMA-3 CHAIN C REGION (human, UniProt P01860-1 1-377)
T3 construct: domain: C region; Polyclonal serum IgG3, identified through its constant region; variable regions and light chains not defined; also called GC3

APOLIPOPROTEIN C-III = biological target: T4, APOLIPOPROTEIN C-III (human, UniProt P02656 21-99)
T4 construct: from human serum; also called APC3

Alpha-1-antitrypsin = biological target: T5, Alpha-1-antitrypsin (human, UniProt P01009 25-418)
T5 construct: also called A1AT; α1-antitrypsin

[3] = biological target: T6, INTER-ALPHA-TRYPSIN INHIBITOR HEAVY CHAIN H1 (human, UniProt P19827 35-672)
T6 construct: from human serum; also called ITH1
T6 sequence (looked up): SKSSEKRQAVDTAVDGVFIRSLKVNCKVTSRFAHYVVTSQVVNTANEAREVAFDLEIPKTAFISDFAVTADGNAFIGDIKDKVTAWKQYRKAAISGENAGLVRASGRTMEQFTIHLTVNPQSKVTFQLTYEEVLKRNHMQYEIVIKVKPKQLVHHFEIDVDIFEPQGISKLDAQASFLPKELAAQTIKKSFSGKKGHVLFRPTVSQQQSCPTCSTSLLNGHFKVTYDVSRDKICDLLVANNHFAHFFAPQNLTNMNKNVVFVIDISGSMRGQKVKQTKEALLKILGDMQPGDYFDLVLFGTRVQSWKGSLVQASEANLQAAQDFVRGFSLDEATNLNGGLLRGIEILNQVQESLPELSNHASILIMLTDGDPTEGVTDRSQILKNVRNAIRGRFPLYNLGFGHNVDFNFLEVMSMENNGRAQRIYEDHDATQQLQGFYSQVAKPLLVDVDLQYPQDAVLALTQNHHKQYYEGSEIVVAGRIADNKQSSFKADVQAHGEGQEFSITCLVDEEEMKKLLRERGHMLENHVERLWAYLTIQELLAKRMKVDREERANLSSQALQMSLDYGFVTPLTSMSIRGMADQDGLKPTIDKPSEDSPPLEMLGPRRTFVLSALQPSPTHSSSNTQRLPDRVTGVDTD

[4] = biological target: T7, INTER-ALPHA-TRYPSIN INHIBITOR HEAVY CHAIN H2 (human, UniProt P19823 55-702)
T7 construct: from human serum; also called ITH2
T7 sequence (looked up): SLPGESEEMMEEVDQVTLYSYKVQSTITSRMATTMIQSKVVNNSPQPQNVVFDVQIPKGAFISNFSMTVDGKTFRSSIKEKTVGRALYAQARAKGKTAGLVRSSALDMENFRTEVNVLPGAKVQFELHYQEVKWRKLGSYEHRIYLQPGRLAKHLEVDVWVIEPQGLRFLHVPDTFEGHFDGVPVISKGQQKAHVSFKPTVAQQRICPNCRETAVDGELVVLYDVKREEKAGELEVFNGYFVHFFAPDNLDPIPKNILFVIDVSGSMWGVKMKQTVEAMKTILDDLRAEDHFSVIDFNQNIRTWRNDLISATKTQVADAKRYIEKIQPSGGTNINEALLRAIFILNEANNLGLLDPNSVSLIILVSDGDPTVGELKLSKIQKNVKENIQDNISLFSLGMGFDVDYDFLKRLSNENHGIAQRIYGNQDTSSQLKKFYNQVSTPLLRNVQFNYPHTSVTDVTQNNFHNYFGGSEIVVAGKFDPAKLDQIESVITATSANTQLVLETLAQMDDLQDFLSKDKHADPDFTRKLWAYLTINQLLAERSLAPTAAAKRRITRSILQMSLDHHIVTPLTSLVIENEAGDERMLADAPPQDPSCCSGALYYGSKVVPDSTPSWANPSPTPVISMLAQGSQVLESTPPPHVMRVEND

T4 sequence (P02656 21-99 limits assumed): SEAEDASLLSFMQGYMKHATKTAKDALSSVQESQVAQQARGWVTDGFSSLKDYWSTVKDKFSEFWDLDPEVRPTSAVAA
T2 sequence (P02649 19-317 limits assumed): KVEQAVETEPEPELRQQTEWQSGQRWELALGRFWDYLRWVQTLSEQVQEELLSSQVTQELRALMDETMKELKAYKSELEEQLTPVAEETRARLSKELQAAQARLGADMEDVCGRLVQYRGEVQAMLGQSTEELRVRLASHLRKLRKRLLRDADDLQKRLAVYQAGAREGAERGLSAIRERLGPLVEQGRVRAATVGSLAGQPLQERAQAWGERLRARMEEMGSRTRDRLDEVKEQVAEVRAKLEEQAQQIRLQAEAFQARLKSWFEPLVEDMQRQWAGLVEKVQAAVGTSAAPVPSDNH
T3 sequence (P01860 other isoform, or with tags, fused parts or gaps limits assumed): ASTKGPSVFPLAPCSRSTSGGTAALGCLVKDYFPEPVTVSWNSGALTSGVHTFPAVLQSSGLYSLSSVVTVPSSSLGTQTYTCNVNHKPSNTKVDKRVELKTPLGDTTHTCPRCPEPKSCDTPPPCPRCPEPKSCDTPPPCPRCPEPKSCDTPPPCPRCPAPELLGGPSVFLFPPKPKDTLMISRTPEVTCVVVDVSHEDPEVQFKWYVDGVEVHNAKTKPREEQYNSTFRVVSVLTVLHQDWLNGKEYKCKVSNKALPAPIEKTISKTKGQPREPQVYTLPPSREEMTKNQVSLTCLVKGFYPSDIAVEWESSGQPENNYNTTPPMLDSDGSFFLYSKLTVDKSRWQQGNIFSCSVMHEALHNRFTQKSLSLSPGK
T5 sequence (P01009 25-418 limits assumed): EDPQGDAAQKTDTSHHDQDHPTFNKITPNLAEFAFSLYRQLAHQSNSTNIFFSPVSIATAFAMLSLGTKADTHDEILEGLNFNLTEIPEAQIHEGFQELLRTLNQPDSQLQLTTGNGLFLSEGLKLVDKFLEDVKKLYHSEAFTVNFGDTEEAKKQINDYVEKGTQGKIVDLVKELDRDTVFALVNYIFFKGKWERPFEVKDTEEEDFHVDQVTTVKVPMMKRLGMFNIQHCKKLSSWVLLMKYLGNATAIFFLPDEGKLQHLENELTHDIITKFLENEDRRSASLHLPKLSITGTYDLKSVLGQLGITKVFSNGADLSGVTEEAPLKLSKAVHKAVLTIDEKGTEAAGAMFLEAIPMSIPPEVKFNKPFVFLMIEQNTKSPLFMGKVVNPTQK

SEQUEST ranking (relative abundance in the Jacalin displacement fraction) [1]: 6 to 10 rank
SEQUEST ranking (relative abundance in the Jacalin displacement fraction) (APOLIPOPROTEIN E): 11 to 15 rank
SEQUEST ranking (relative abundance in the Jacalin displacement fraction) [2]: 16 to 20 rank
SEQUEST ranking (relative abundance in the Jacalin displacement fraction) (APOLIPOPROTEIN C-III): 6 to 10 rank
SEQUEST ranking (relative abundance in the Jacalin displacement fraction) (Alpha-1-antitrypsin): 1 to 5 rank
SEQUEST ranking (relative abundance in the Jacalin displacement fraction) [3]: 6 to 10 rank
SEQUEST ranking (relative abundance in the Jacalin displacement fraction) [4]: 16 to 20 rank
B1: Jacalin lectin, agarose-bound (other)
chain 1: GKAFDDGAFTGIREINLSYNKETAIGDFQVVYDLNGSPYVGQNHKSFITGFTPVKISLDFPSEYIMEVSGYTGNVSGYVVVRSLTFKTNKKTYGPYGVTSGTPFNLPIENGLIVGFKGSIGYWLDYFSMYLSL
chain 2: NEQSGKSQTVIVGSWGAKVS
modifications: immobilized on agarose
notes: Lectin; released with galactose; Coated on the plate in the lectin ELISA
